We go through one substance from patent publication US20040259194A1.

Several values for one entry are separate records, joined by “and”; a condition that tells them apart may be missing. Equal values may be shown once.

The assay deals with melanin-concentrating hormone receptor 1 (MCHR1) from I3.4.2 cells (human) (UniProt Q99705). As to the kind of experiment: cell-based or functional assay.
Chain of melanin-concentrating hormone receptor 1 (MCHR1) from I3.4.2 cells (human) (Q99705 whole entry): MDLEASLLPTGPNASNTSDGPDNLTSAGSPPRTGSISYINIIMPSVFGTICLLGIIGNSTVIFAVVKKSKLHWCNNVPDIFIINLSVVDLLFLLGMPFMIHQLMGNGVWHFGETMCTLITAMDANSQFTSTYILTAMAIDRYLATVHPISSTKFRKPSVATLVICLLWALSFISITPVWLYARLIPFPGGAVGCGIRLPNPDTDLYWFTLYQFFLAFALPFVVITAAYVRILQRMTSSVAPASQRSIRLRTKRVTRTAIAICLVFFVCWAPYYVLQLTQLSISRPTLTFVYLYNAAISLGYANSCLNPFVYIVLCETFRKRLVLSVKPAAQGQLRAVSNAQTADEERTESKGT

On to “melanin-concentrating hormone (MCH) (from UniProt P20382 147-165) (peptide)”, for which the Ca++ response to 1 uM MCH, relative fluorescence units (FLIPR), baseline approximately 700 RFU is 5000 RFU and 6000 RFU; the EC50 for MCH-mediated Ca++-mobilization (fluorometric imaging plate reader) on I3.4.2 cells came to 0.09 µM; the EC50 for receptor activation, Ca++-mobilization assay (FLIPR) on T42402I3.4.2 cells was found to be 0.08 µM.
